Measured values: patent US6942988 (Johns Hopkins, dated 2005)

T1: full-length mouse Ptc (patched receptor) (mouse, UniProt Q61115 1-1434)
T1 construct: whole, on cells; Predicted mass 159 kDa
T1 sequence (looked up): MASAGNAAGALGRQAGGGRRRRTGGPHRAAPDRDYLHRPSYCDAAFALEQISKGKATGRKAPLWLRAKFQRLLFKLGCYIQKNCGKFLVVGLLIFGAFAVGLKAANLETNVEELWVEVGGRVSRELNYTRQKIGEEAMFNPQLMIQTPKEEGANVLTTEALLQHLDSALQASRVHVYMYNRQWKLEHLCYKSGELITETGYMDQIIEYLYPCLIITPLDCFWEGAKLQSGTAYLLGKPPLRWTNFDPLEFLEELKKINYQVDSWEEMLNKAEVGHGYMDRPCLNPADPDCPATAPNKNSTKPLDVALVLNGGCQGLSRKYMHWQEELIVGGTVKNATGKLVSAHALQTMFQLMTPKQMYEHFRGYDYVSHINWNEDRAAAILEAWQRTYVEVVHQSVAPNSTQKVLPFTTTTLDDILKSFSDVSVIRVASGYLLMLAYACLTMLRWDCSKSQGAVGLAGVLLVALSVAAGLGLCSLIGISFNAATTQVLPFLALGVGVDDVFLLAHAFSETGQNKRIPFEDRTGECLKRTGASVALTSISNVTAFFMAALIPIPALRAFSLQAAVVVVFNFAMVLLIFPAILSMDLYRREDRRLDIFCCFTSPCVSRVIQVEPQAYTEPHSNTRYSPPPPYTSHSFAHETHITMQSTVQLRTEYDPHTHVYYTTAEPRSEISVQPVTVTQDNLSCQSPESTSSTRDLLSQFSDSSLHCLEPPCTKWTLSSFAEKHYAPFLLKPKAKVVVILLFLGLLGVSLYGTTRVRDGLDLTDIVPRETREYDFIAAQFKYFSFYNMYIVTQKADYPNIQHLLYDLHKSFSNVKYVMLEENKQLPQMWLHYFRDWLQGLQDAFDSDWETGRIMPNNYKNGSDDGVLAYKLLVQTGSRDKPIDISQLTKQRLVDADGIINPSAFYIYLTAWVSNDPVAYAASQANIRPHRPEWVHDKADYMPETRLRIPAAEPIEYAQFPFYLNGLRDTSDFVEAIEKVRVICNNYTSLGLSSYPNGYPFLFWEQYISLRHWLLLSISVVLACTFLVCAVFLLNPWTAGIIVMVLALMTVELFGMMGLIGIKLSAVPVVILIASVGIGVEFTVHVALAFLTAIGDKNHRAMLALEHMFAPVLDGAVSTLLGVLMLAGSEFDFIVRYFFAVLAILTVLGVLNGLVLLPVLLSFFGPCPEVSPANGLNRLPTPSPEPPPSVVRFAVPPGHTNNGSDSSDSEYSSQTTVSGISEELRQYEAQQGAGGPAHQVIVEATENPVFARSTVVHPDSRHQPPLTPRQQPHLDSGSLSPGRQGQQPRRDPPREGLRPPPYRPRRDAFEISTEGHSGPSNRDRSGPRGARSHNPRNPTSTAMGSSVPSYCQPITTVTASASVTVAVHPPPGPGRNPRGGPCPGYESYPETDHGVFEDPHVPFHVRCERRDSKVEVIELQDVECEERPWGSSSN


Columns and labels:
[1] = target: T2, Ptc (patched receptor) of the cells of chicken intermediate neural plate explants; experiment: cell-based or functional assay
T2 sequence (Q90693 whole entry): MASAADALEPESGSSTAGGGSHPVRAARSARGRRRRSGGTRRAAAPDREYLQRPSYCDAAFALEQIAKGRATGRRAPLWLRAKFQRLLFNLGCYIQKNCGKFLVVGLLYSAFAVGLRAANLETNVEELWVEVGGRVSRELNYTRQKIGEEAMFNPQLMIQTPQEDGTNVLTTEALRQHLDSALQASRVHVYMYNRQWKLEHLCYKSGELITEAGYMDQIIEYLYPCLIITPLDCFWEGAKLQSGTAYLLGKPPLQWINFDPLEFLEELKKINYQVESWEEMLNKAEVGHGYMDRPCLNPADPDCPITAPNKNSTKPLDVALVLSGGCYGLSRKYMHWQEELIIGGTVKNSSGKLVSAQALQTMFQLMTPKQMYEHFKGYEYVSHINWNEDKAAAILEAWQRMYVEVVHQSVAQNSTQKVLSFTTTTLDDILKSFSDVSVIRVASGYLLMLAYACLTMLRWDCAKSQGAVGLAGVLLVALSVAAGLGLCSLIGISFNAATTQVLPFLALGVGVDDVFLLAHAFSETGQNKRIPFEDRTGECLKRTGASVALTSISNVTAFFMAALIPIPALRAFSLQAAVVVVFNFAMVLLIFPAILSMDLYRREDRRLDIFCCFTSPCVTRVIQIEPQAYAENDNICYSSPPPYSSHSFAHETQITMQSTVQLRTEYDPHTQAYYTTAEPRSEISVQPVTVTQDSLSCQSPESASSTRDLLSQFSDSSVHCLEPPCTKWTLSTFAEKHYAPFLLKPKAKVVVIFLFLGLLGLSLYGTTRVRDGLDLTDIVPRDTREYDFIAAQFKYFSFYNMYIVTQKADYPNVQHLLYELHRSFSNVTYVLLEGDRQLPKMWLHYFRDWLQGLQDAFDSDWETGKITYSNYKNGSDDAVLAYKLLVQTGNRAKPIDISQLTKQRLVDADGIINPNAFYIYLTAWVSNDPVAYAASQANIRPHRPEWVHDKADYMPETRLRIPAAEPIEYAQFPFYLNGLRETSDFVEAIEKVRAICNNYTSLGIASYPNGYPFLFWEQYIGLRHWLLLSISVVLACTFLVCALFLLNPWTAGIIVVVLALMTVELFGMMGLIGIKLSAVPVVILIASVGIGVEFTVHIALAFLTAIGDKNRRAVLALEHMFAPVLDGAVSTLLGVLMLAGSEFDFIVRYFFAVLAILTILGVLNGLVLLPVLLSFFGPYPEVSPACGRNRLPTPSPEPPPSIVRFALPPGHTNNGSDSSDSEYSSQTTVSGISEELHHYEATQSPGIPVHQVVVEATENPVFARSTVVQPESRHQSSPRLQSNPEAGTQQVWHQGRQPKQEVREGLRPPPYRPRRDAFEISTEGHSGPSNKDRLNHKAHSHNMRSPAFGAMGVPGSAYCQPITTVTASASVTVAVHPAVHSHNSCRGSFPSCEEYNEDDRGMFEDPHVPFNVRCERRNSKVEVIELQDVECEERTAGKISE

[2] = target: T1, full-length mouse Ptc (patched receptor); experiment: competition of the disuccinimidyl suberate crosslinking of 32P-Shh-N to Ptc-expressing EcR-293 cells
[3] = target: T2, Ptc (patched receptor) of the cells of …; experiment: cell-based or functional assay; remark: listed apart in the source

Binder | HNF-3β induction, nM (minimum concentration for uniform induction, chicken neural plate explants) [1] [nM] | Pax-7 repression, nM (minimum concentration for complete repression, chicken neural plate explants) [1] [nM] | binding result [2] | reduction in neural plate signaling activity against wild type [3] [fold]
Shh-N SF protein (R154A, S157A) (ligand) not shown | ≥ 100 | ~70 |  | 
Shh-N SE protein (P42A, K46A) (ligand) not shown | ~100 | ~20 |  | 
Shh-N SB altered protein (N51A, V52A, T56A, E168A) (ligand) not shown | ≥ 20 | ~4 |  | 
Shh-N SC mutant protein (P42A, K46A, R154A, S157A, S178A, K179A) (ligand, Limits of the entry not visible; also called SC altered protein) not shown | > 1000 | > 1000 | no binding | 
Shh-N H135A, E177A double mutant (EH) protein (ligand) not shown | ≥ 20 | ~10 |  | 
Shh-N SG protein (S178A, K179A) (ligand) not shown | ~100 | ~30 |  | 
Shh-N SA altered protein (K75A, E76A, Y81A, D105A, N116A, E189A, K195A) (ligand) not shown | ≤ 20 | ~4 |  | 
Shh-N SD altered protein (E90A, D132A, E138A) (ligand) not shown | ≥ 20 | ~10 |  | ~2.5
